Reference: US20220325265A1, “GLUCOCEREBROSIDASE MUTANTS” (Hoffmann-la Roche Inc., priority 2019, published 2022)
Where a chain is given by its changes, count along the chain named. Numbers in names are those of the source. Values belong to the molecule of their own block, whether it stands above or below them.

What was measured:
[1] = Activatability of hGCase mutants by phosphatidylserine; format: biochemical; settings: 25 nM protein; for phosphatidylserine activation, fold increase of initial activity: 4 μM phosphatidylserine, 10 min pre-incubation at RT
Method: Negatively charged lipids as phosphatidylserine are known to stabilize and activate the enzyme usually in combination with Saposin C (SAP-2), since GCase is naturally interacting with the membrane of the lysosomes in vivo. For the assay, 25 nM protein and 4 μM phosphatidylserine (Avanti; 10 mM stock solution dissolved in chloroform) were tested.
After adding the lipid to the enzyme, the solution was pre-incubated for 10 min at RT before adding the substrate and initializing the enzymatic reaction. The hGCase activity without added phosphatidylserine was set to 100% relative enzyme activity. The increase in activity was expressed as X-fold the initial activity without activator.
Several physiological substances have been reported to stimulate the activity of glucocerebrosidase. GCase is naturally interacting with the membrane of the lysosomes in vivo, thus negatively charged lipids such as phosphatidylserine are known to stabilize and activate the enzyme alone or in combination with Saposin C (SAP-2) (Qi & Grabowski, 1998; Sun et al., 2002; Vaccaro et al., 1995). Thus, it is essential to preserve these properties when modifying the GCase enzyme structure. To this end, the effect of phosphatidylserine alone was evaluated as first approach. The activity levels with and without added phosphatidylserine are plotted in FIG. 6.
By translating the data into fold increase of the initial activity, a more conclusive statement can be drawn (FIG. 7).

[2] = test system: H4 glioblastoma GBA-KO cells; test: Reduction of natural substrate GlcSph in H4 GBA-KO cells (LC/MS); format: cell-based, human; settings: 48 h, vs untreated H4 GBA-KO cells
Method: FIG. 9: Reduction of the natural substrate GlcSph after treatment of H4 glioblastoma GBA-KO cells with hGCase molecules. Treatment concentration (hGCase protein): 1, 10 and 100 nM, respectively. Analysis of substrate levels after 48 h of incubation via LC/MS. H4 wt cells (GCase levels normalized to 100%) and H4 GBA-KO cells (loss of GBA gene) served as control. ^1 measured glucosylsphingosine (GlcSph) levels normalized to total protein amount. ^2 H4 glioblastoma cells with knock-out GBA gene.
(§1) Human H4 glioblastoma cells (H4 cells) were taken as human neuronal model to test purified hGCase variants in a cell-based setup. H4 wild-type cells and untreated H4 GBA-KO cells (knock-out of related GCase GBA gene) were taken as references. After seeding (40000 cells/well) and incubating them for ˜24 h, the GBA-KO cells were treated with 1, 10 and 100 nM of target protein sample and incubated for either 2 h (for uptake and GCase activity measurements) or 48 h (for substrate reduction measurements) at 37° C. with 5% CO2 and constant humidity. After cell-lysis (GCase activity buffer (table 2.6)+0.1% (w/v) Triton X-100+phosphatase (Phospho stop Roche in-house)+protease inhibitor (cOmplete EDTA-free)), the uptake of the enzymes into the cells was evaluated by measuring the hGCase concentration via AlphaLISA (section 2.3.6) as well as the activity after the uptake (section 2.3.5). Samples for substrate reduction determination were hand over to Iris Ruf (SMR, see section 2.7). Due to the loss of the GCase related GBA gene in H4 GBA-KO cells, the natural substrate glucosylsphingosine (GlcSph) accumulates. The reduction of GlcSph levels due to hGCase treatment was evaluated via LC/MS by Iris Ruf (SMR).
(§2) Finally, the cellular uptake, activity and substrate reduction in human neuronal cells were determined to test the mutants' efficacy in a more cellular context. In this work, human H4 glioblastoma wild-type cells (wt) and H4 GBA-KO cells (knock-out of GCase related GBA gene) were used as a Gaucher cell model. H4 GBA-KO cells, which accumulate the natural substrate glucosylsphingosine (GlcSph) due to the loss of the GBA gene, were treated with 1, 10 and 100 nM of hGCase molecules, respectively. Activity and protein concentration (via AlphaLISA) were measured after two hours of incubation after several media wash steps. The reduction of natural substrate GlcSph was analyzed 48 h after cell treatment via LC/MS. The activity measured after uptake into the cells normalized to measured hGCase protein levels is graphed in FIG. 8. The evaluated activities are given as percentage of hGCase activity measured in wt H4 cells, set to 100%.
To determine the enzymes' efficacies, the reduction of accumulated glucosylsphingosine (GlcSph) in H4 GBA-KO cells was investigated.

[3] = test system: H4 glioblastoma GBA-KO cells; test: GCase activity after uptake into H4 GBA-KO cells, normalized to hGCase protein level; format: cell-based, human; settings: 2 h incubation
Method: FIG. 8: Activity levels normalized to hGCase protein levels measured after treatment of H4 glioblastoma GBA-KO cells with hGCase molecules. Treatment concentration (hGCase protein): 1, 10 and 100 nM (100 nM not shown herein), respectively. Activity and protein amount measurement after 2 h of incubation. Activity measured with artificial substrate res-β-glc (20 μM); protein concentration determination via AlphaLISA (section 2.3.6). H4 wt cells (GCase levels normalized to 100%) and H4 GBA-KO cells (loss of GBA gene) served as control. ^1 GCase activity measured in H4 cells normalized to activity measured in H4 (wt) cells designated to 100% and normalized to protein amount. ^2 H4 glioblastoma cells with knock-out GBA gene.
as §1
as §2, with “H4 GBA-KO cells, which accumulate the natural substrate glucosylsphingosine (GlcSph) due to the loss of the GBA gene, were treated with 1, 10 and 100 nM of hGCase molecules, respectively.” left out

phosphatidylserine activation, fold increase of initial activity [1]: 4.9 fold
B1: R495HS2: hGCase based on the Cerezyme sequence (R495H) but produced in S2 cells, His8-tagged; Seq. Id. No. 1 (protein, listed as Homo sapiens)
chain: ARPCIPKSFGYSSVVCVCNATYCDSFDPPTFPALGTFSRYESTRSGRRMELSMGPIQANHTGTGLLLTLQPEQKFQKVKGFGGAMTDAAALNILALSPPAQNLLLKSYFSEEGIGYNIIRVPMASCDFSIRTYTYADTPDDFQLHNFSLPEEDTKLKIPLIHRALQLAQRPVSLLASPWTSPTWLKTNGAVNGKGSLKGQPGDIYHQTWARYFVKFLDAYAEHKLQFWAVTAENEPSAGLLSGYPFQCLGFTPEHQRDFIARDLGPTLANSTHHNVRLLMLDDQRLLLPHWAKVVLTDPEAAKYVHGIAVHWYLDFLAPAKATLGETHRLFPNTMLFASEACVGSKFWEQSVRLGSWDRGMQYSHSIITNLLYHVVGWTDWNLALNPEGGPNWVRNFVDSPIIVDITKDTFYKQPMFYHLGHFSKFIPEGSQRVGLVASQKNDLDAVALMHPDGSAVVVVLNRSSKDVPLTIKDPAVGFLETISPGYSIHTYLWHRQ
modifications: His8 tag
reduction in GlcSph levels (%) ([2]; 10 nM treatment): ~75%
reduction in GlcSph levels (fold) ([2]; 10 nM treatment): 4 fold

basal activity level (no added lipid) ([1]; no phosphatidylserine): least basal activity level
phosphatidylserine activation, fold increase of initial activity [1]: 7.5 fold
B2: I5N: recombinant human β-glucocerebrosidase variant R495H/I5N, S2 cells; Seq. Id. No. 4 (protein, listed as Homo sapiens)
chain: B1 chain with I5N
notes: recombinant human β-glucocerebrosidase variant R495H/I5N, S2 cells; Id; No. 4
reduction in GlcSph levels (%) ([2]; 10 nM treatment): ~75%
reduction in GlcSph levels (fold) ([2]; 10 nM treatment): 4 fold

phosphatidylserine activation, fold increase of initial activity [1]: 11.5 fold
B3: imiglucerase (protein, UniProt P04062 40-536, looked up, variant R495H)
Lysosomal acid …: B1 chain
modifications: imiglucerase; CHO-produced
notes: Commercially available Cerezyme (imiglucerase, Genzyme), hGCase R495H produced in CHO cells
GCase activity level normalized to H4 wt GCase activity (100%) and protein amount ([3]; 1 nM protein treatment): 4%
GCase activity level normalized to H4 wt GCase activity (100%) and protein amount ([3]; 10 nM protein treatment): 44%
reduction in GlcSph levels (%) ([2]; 1 nM treatment): 82%
reduction in GlcSph levels (%) ([2]; 10 nM treatment): 97%

phosphatidylserine activation, fold increase of initial activity [1]: ~2.8 fold
B4: K321N/H145L: Amicus double mutant hGCase R495H/K321N/H145L produced in S2 cells; Seq. Id. No. 3 (protein, listed as Homo sapiens)
chain: B1 chain with H145L, K321N
notes: Amicus double mutant hGCase R495H/K321N/H145L produced in S2 cells; Id; No. 3

phosphatidylserine activation, fold increase of initial activity [1]: 6.5 fold
B5: M53T/P55T: recombinant human β-glucocerebrosidase variant R495H/M53T/P55T, S2 cells; Seq. Id. No. 7 (protein, listed as Homo sapiens)
chain: B1 chain with M53T, P55T
notes: recombinant human β-glucocerebrosidase variant R495H/M53T/P55T, S2 cells; Id; No. 7
GCase activity level normalized to H4 wt GCase activity (100%) and protein amount ([3]; 1 nM protein treatment): ~4%
GCase activity level normalized to H4 wt GCase activity (100%) and protein amount ([3]; 10 nM protein treatment): 26%
reduction in GlcSph levels (%) ([2]; 10 nM treatment): ~88%
reduction in GlcSph levels (fold) ([2]; 10 nM treatment): 8.3 fold
